This is an account of results in publication PMC7811519, “Unusual DNA-binding properties of the Arabidopsis thaliana WRKY50 transcription factor at target gene promoters”.

Positions count from the first letter of the chain named.

To fix the notation:
B1: S21mut4 (dsDNA)
DNA 1: TTTATGTTTAGTCCCTGTCATATAG
DNA 2: CTATATGACAGGGACTAAACATAAA
B2: S21mut2 (dsDNA)
DNA 1: TTTATGTTTGACTTTTACTGTATAG
DNA 2: CTATACAGTAAAAGTCAAACATAAA
B3: S21mut1 (dsDNA)
DNA 1: TTTATGTCCAGTATTTGTCATATAG
DNA 2: CTATATGACAAATACTGGACATAAA
B4: S21mut3 (dsDNA)
DNA 1: TTTATGTCCAGTATTTACTGTATAG
DNA 2: CTATACAGTAAATACTGGACATAAA
B5: S21mut5 (dsDNA)
DNA 1: TTTATGTTTGACTCCCGTCATATAG
DNA 2: CTATATGACGGGAGTCAAACATAAA
B6: S21 (CRM-ATBBE4) (dsDNA)
DNA 1: TTTATGTTTGACTTTTGTCATATAG
DNA 2: CTATATGACAAAAGTCAAACATAAA
B7: S15 (CRM-DJ1E) (dsDNA)
DNA 1: AGGACTTTTCACCAGTTGGACTTTGAAGCCACCAA
DNA 2: TTGGTGGCTTCAAAGTCCAACTGGTGAAAAGTCCT
B8: S24 (CRM1-WRKY30) (dsDNA)
DNA 1: TGGTCAGCATGTTGGACTTTCCAAATTCATTGACC
DNA 2: GGTCAATGAATTTGGAAAGTCCAACATGCTGACCA
B9: S22 (CRM2-WRKY30) (dsDNA)
DNA 1: GAGAGAGATAGTTTGACTTTTTGACTGAAGAACGA
DNA 2: TCGTTCTTCAGTCAAAAAGTCAAACTATCTCTCTC
B10: S22mut2 (dsDNA)
DNA 1: GAGAGAGATAGTCCAGTCTTTTGACTGAAGAACGA
DNA 2: TCGTTCTTCAGTCAAAAGACTGGACTATCTCTCTC
B11: S22mut3 (dsDNA)
DNA 1: GAGAGAGATAGTCCAGTCTTCCAGTCGAAGAACGA
DNA 2: TCGTTCTTCGACTGGAAGACTGGACTATCTCTCTC
B12: S22mut4 (dsDNA)
DNA 1: GAGAGAGATAGTTTAGTCCCCCGACTGAAGAACGA
DNA 2: TCGTTCTTCAGTCGGGGGACTAAACTATCTCTCTC
B13: S22mut5 (dsDNA)
DNA 1: B9 DNA 1 with T19C, T20C
DNA 2: B9 DNA 2 with A16G, A17G
B14: S24mut9 (dsDNA)
DNA 1: TGGTCAGCATGTTGGACTTTCCGGGCCTGTTGACC
DNA 2: GGTCAACAGGCCCGGAAAGTCCAACATGCTGACCA
B15: S24mut2 (dsDNA)
DNA 1: TAACTGGCATGTTGGACTTTCCAAATTCACCAGTT
DNA 2: AACTGGTGAATTTGGAAAGTCCAACATGCCAGTTA
B16: S24mut7 (dsDNA)
DNA 1: TAACTGGCATGTTAAGTCCCTTAAATTCACCAGTT
DNA 2: AACTGGTGAATTTAAGGGACTTAACATGCCAGTTA
B17: S24mut8 (dsDNA)
DNA 1: TGGTCAATGCACCGGACTTTCCAAATTCATTGACC
DNA 2: GGTCAATGAATTTGGAAAGTCCGGTGCATTGACCA
B18: S15mut3 (dsDNA)
DNA 1: AGGACTTTTCACCAGTTGAGTCCCAAAGCCACCAA
DNA 2: TTGGTGGCTTTGGGACTCAACTGGTGAAAAGTCCT
B19: S15mut4 (dsDNA)
DNA 1: AGGACTTTTCACCAGTTGGACTTTGGGATTGTTGG
DNA 2: CCAACAATCCCAAAGTCCAACTGGTGAAAAGTCCT
B20: S15mut2 (dsDNA)
DNA 1: AGGACTTTTTCTTCACCAGACTTTGAAGCCACCAA
DNA 2: TTGGTGGCTTCAAAGTCTGGTGAAGAAAAAGTCCT
B21: S15mut1 (dsDNA)
DNA 1: AGAGTCCCCCACCAGTTGGACTTTGAAGCCACCAA
DNA 2: TTGGTGGCTTCAAAGTCCAACTGGTGGGGGACTCT
B22: S15mut13 (dsDNA)
DNA 1: AGAGTCCCCCACCAGTTGAGTCCCAAAGCCACCAA
DNA 2: TTGGTGGCTTTGGGACTCAACTGGTGGGGGACTCT

T1 sequence (Q8VWQ5 86-173): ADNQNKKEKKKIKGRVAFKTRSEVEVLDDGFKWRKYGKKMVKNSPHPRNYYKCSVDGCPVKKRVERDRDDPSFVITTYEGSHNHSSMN

The first data set has as its target T1, WRKY50BD (Arabidopsis thaliana Col-0, UniProt Q8VWQ5 86-173). The data set can be described thus: competition EMSA; 100-fold excess vs S21 probe; EMSA with 4-5 ug recombinant protein, 32P probe, 100-fold molar excess competitor; binding buffer, salt, pH and temperature not given (cites Kanofsky et al. 2018). To be noted: tags: His tag (pQE-30, Ni purification; tag not spelled out). (In EMSA bound probe runs differently from free probe, usually more slowly.)
On to B1, for which the binding result is “no binding”.
Consider B2, for which the binding result is listed as “binds”.
On the same count and under the same terms, then B3, with “no binding”.
Take B4: the binding result is recorded as “no binding”.
On the same count and under the same terms, then B5, with “no binding”.

For a further data set, the target named is T1, WRKY50BD. The experiment in a line: EMSA; EMSA with 4-5 ug recombinant protein, 32P probe, 100-fold molar excess competitor; binding buffer, salt, pH and temperature not given (cites Kanofsky et al. 2018). To be noted: tags: His tag (pQE-30, Ni purification; tag not spelled out), label: 32P end label (as probe).
Consider B6, for which the binding result was “binds”.
On the same count and under the same terms, then B7, with “binds”; and B8, with “binds”.
The same measure, in the same setting: then B9, with “binds”.

The target of another data set is WRKY50 full length (Arabidopsis thaliana Col-0, UniProt Q8VWQ5 1-173). The description is as above. The note with it: label: 32P end label (as probe).
WRKY50 full length, sequence (Q8VWQ5 whole entry): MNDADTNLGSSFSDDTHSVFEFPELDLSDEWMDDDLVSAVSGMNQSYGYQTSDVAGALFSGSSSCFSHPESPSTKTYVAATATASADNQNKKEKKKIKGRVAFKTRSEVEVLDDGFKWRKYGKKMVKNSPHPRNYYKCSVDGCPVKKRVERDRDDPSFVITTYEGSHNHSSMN
On to B6, for which the binding result is given as “no binding”.

The next data set addresses T1, WRKY50BD. The data set can be described thus: competition EMSA; 100-fold excess vs S22 probe; EMSA with 4-5 ug recombinant protein, 32P probe, 100-fold molar excess competitor; binding buffer, salt, pH and temperature not given (cites Kanofsky et al. 2018). The note with it: tags: His tag (pQE-30, Ni purification; tag not spelled out).
As for B10, the binding result is listed as “no binding”.
Same read-out and setting: next, B11: “no binding”; B12: “no binding”; B13: “no binding”.

For the next data set, the target named is T1, WRKY50BD. The experiment in a line: competition EMSA; 100-fold excess vs S24 probe; EMSA with 4-5 ug recombinant protein, 32P probe, 100-fold molar excess competitor; binding buffer, salt, pH and temperature not given (cites Kanofsky et al. 2018). The note with it: tags: His tag (pQE-30, Ni purification; tag not spelled out).
Consider B14, for which the binding result was “binds”.
Regarding B15, the binding result is reported as “binds”.
On the same count and under the same terms, next, B16: “no binding”; B17: “binds”.

A further data set concerns the target T1, WRKY50BD. The experiment in a line: competition EMSA; 100-fold excess vs S15 probe; EMSA with 4-5 ug recombinant protein, 32P probe, 100-fold molar excess competitor; binding buffer, salt, pH and temperature not given (cites Kanofsky et al. 2018). The note with it: tags: His tag (pQE-30, Ni purification; tag not spelled out).
For the molecule B18, the binding result was “binds”.
As to B19, the binding result is on record as “binds”.
On the same count and under the same terms, then B20, with “binds”.
For B21, the binding result was “binds”.
Turning to B22, the binding result is “no binding”.
